Results from patent US20240067725A1.

Target: full-length human LAG-3 expressed on cells (human) (UniProt P18627)
Test: cell-based or functional assay

full-length human LAG-3 expressed on cells (human), sequence (P18627 23-525 limits assumed): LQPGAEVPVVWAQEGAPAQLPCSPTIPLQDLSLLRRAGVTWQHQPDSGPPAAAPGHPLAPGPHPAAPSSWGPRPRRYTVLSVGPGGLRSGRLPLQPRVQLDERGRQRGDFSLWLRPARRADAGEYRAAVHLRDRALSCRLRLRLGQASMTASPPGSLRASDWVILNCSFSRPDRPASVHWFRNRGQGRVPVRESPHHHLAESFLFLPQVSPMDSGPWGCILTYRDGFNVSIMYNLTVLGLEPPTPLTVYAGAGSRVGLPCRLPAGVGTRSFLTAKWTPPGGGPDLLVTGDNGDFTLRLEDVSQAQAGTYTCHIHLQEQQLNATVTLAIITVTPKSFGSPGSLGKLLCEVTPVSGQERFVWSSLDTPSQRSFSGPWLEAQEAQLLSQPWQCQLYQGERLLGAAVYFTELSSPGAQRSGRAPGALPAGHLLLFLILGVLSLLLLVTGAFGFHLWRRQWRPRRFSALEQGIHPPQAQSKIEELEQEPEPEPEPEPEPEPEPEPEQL

B1: BMK7 (antibody, from another filing, V domains shown)
VH: QVQLVESGGGVVQPGRSLRLSCVASGFTFSSYGMHWVRQAPGKGLEWVAIIWYDGSNKYYADSVKGRFTISRDNSKNTQYLQMNSLRAEDTAVYYCASVATSGDFDYYGMDVWGQGTTVTVSS
VL: EIVLTQSPATLSLSPGERTTLSCRASQRISTYLAWYQQKPGQAPRLLIYDASKRATGIPARFSGSGSGTGFTLTISSLEPEDFAVYYCQQRSNWPLTFGGGTKVEIK
EC50 (nM), IL-2 luciferase reporter gene assay: 2.65 nM
